Data as given in article PMC12137140, “The fast-evolving FIKK kinase family of Plasmodium falciparum can be inhibited by a single compound” (Nature Microbiology, 2025).

B1: FIKK13_4_S7AY10A (peptide)
chain: YPLRFLAVKAHCG
modifications: D-tyrosine at position 1; cyclised via a thioether bond between the N-terminus and the cysteine side chain; C-terminal amide
B2: FIKK13_4 (peptide)
chain: YPLRFLSKYHCG
modifications: D-tyrosine at the N-terminus; cyclised via a thioether bond between the N-terminus and the cysteine side chain; C-terminal amide

Tests used:
Bio-His-FIKK13 [1] = target: T1, Bio-His-FIKK13 (Plasmodium falciparum 3D7, biotin (site not stated)); experiment: SPR; single-cycle kinetics, Biacore S200, Biotin CAPture kit; Bio-His-FIKK13 immobilised (about 1,400 RU), peptides as analytes; 50 mM Tris pH 7.5, 250 mM NaCl, 2 mM DTT, 10 mM MgCl2, 1.5 µM ADP, 0.02% Tween, 0.1% DMSO; 25 °C; 100 s contact time; conditions: both partners purified
T1 construct: also called His-bio-FIKK13; PfFIKK13

Bio-His-FIKK13 [2] = target: T2, Bio-His-FIKK13 (P. falciparum, biotin (site not stated)); experiment: SPR; Bio-His-FIKK13 immobilised (Biotin CAPture kit, about 1,400 RU), Biacore S200, single-cycle kinetics, 100 s contact time, 25 °C, 50 mM Tris pH 7.5, 250 mM NaCl, 2 mM DTT, 10 mM MgCl2, 1.5 µM ADP, 0.02% Tween, 0.1% DMSO; conditions: both partners purified
T2 construct: also called His-bio-FIKK13; biotinylated FIKK13

Row | Binder | Kd (Bio-His-FIKK13 [1]) | Kd (Bio-His-FIKK13 [2])
1 | B1 | > 10000 nM | 
2 | B2 |  | 17 nM
